Experimental data as given in doi:10.1101/2025.08.27.672771 (bioRxiv, 2025).

Target: the molecule itself
Assay: SEC

B1: human TRPC3 (hTRPC3) channel, GFP-MBP-tagged (natural protein, UniProt Q13507 86-921, looked up)
chain: MREKGRRQAVRGPAFMFNDRGTSLTAEEERFLDAAEYGNIPVVRKMLEESKTLNVNCVDYMGQNALQLAVGNEHLEVTELLLKKENLARIGDALLLAISKGYVRIVEAILNHPGFAASKRLTLSPCEQELQDDDFYAYDEDGTRFSPDITPIILAAHCQKYEVVHMLLMKGARIERPHDYFCKCGDCMEKQRHDSFSHSRSRINAYKGLASPAYLSLSSEDPVLTALELSNELAKLANIEKEFKNDYRKLSMQCKDFVVGVLDLCRDSEEVEAILNGDLESAEPLEVHRHKASLSRVKLAIKYEVKKFVAHPNCQQQLLTIWYENLSGLREQTIAIKCLVVLVVALGLPFLAIGYWIAPCSRLGKILRSPFMKFVAHAASFIIFLGLLVFNASDRFEGITTLPNITVTDYPKQIFRVKTTQFTWTEMLIMVWVLGMMWSECKELWLEGPREYILQLWNVLDFGMLSIFIAAFTARFLAFLQATKAQQYVDSYVQESDLSEVTLPPEIQYFTYARDKWLPSDPQIISEGLYAIAVVLSFSRIAYILPANESFGPLQISLGRTVKDIFKFMVLFIMVFFAFMIGMFILYSYYLGAKVNAAFTTVEESFKTLFWSIFGLSEVTSVVLKYDHKFIENIGYVLYGIYNVTMVVVLLNMLIAMINSSYQEIEDDSDVEWKFARSKLWLSYFDDGKTLPPPFSLVPSPKSFVYFIMRIVNFPKCRRRRLQKDIEMGMGNSKSRLNLFTQSNSRVFESHSFNSILNQPTRYQQIMKRLIKRYVLKAQVDKENDEVNEGELKEIKQDISSLRYELLEDKSQATEELAILIHKLSEKLNPSMLRCE
  stoichiometry N: 4
